# ± gives the uncertainty stated by the source.
# Experiment: self-splicing fitness, log relative to wild type (ln ratio); higher = more splicing; Tetrahymena group I intron in knt gene, E. coli kanamycin selection, DiMSum; sequences stand for … in CUCUCU…GGAGGGAAAAGUUAUCAGGCAUGCACCUGGUAGCUAGUCUUUAAACCAAUAGAUUGCAUCGGUUUAAAAGGCAAGACCGUCAAAUUGCGGGAAAGGGGUCAACAGCCGUUCAGUACCAAGUCUCAGGGGAAACUUUGAGAUGGCCUUGCAAAGGGUAUGGUAAUAAGCUGACGGACAUGGUCCUAACCACGCAGCCAAGUCCUAAGUCAACAGAUCUUCUGUUGAUAUGGAUGCAGUUCACAGACUAAAUGUCGGUCGGGGAAGAUGUAUUCUUCUCAUAAGAUAUAGUCGGACCUCUCCUUAAUGGGAGCUAGCGGAUGAAGUGAUGCAACACUGGAGCCGCUGGGAACUAAUUUGUAUGCGAAAGUAUAUUGAUUAGUUUUGGAGUACUCGUGGUCG
# Procedure, shortened: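 DiMSum derived fitness as the error-weighted combination of fold changes across replicates, kanamycin versus no kanamycin, normalised to wild type. E. coli BL21(DE3) held the library, which randomised all eight P1ex-region intron nucleotides within the knt kanamycin-resistance gene on pET-22b(+). Six replicate transformations grew overnight at 37°C or 30°C on LB agar with or without 25 μg/mL kanamycin, also containing 100 μg/mL carbenicillin, 50 μM IPTG and 0.2% rhamnose, and pooled colonies were amplicon-sequenced on an Illumina HiSeq 2500.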
sequence,measurement,setting,value
AUAGAGCAAUAUUACGACCC,self-splicing fitness (ln),30 °C,-2.56 ± 0.47
same,self-splicing fitness (ln),37 °C,-1.4 ± 0.42
CUACAGCAAUAUUACGCUUC,self-splicing fitness (ln),37 °C,-2.88 ± 0.44
AUCUAGCAAUAUUACGGGCC,self-splicing fitness (ln),30 °C,-3.15 ± 0.23
same,self-splicing fitness (ln),37 °C,-2.18 ± 0.22
AAUGAGCAAUAUUACGCAAA,self-splicing fitness (ln),37 °C,-2.46 ± 0.48
CUGCAGCAAUAUUACGCAGU,self-splicing fitness (ln),30 °C,-1.6 ± 0.14
same,self-splicing fitness (ln),37 °C,-3.15 ± 0.35
UCCAAGCAAUAUUACGUAAA,self-splicing fitness (ln),30 °C,-1.12 ± 0.089
same,self-splicing fitness (ln),37 °C,-0.00199 ± 0.11
UAGUAGCAAUAUUACGAACA,self-splicing fitness (ln),37 °C,-0.405 ± 0.42
UGGAAGCAAUAUUACGCGCC,self-splicing fitness (ln),30 °C,-3.22 ± 0.32
same,self-splicing fitness (ln),37 °C,-1.54 ± 0.31
AUAAAGCAAUAUUACGGAGG,self-splicing fitness (ln),30 °C,-3.18 ± 0.18
same,self-splicing fitness (ln),37 °C,-1.67 ± 0.24
CGCAAGCAAUAUUACGCCUA,self-splicing fitness (ln),30 °C,-0.46 ± 0.094
same,self-splicing fitness (ln),37 °C,-0.653 ± 0.1
UAAGAGCAAUAUUACGAGUG,self-splicing fitness (ln),30 °C,-3.74 ± 0.23
same,self-splicing fitness (ln),37 °C,-1.16 ± 0.22
GACGAGCAAUAUUACGAAUU,self-splicing fitness (ln),30 °C,-3.49 ± 0.14
same,self-splicing fitness (ln),37 °C,-2.55 ± 0.14
GAAGAGCAAUAUUACGACGA,self-splicing fitness (ln),37 °C,-2.03 ± 0.42
GACUAGCAAUAUUACGAGAU,self-splicing fitness (ln),30 °C,-2.93 ± 0.19
same,self-splicing fitness (ln),37 °C,-1.57 ± 0.21
CCACAGCAAUAUUACGGUCC,self-splicing fitness (ln),30 °C,-2.75 ± 0.32
same,self-splicing fitness (ln),37 °C,-2.32 ± 0.32
GGCCAGCAAUAUUACGUUCU,self-splicing fitness (ln),30 °C,-0.00519 ± 0.082
same,self-splicing fitness (ln),37 °C,0.108 ± 0.089
AUACAGCAAUAUUACGGAAG,self-splicing fitness (ln),30 °C,-3.36 ± 0.14
same,self-splicing fitness (ln),37 °C,-2.21 ± 0.14
CCACAGCAAUAUUACGAACA,self-splicing fitness (ln),30 °C,-2.78 ± 0.24
same,self-splicing fitness (ln),37 °C,-2.33 ± 0.29
AUCCAGCAAUAUUACGAUCU,self-splicing fitness (ln),30 °C,-1.84 ± 0.091
same,self-splicing fitness (ln),37 °C,-0.641 ± 0.12
ACGGAGCAAUAUUACGUCAA,self-splicing fitness (ln),30 °C,-2.71 ± 0.39
same,self-splicing fitness (ln),37 °C,-2.94 ± 0.36
UUUAAGCAAUAUUACGAAUU,self-splicing fitness (ln),30 °C,-1.6 ± 0.17
same,self-splicing fitness (ln),37 °C,-1.58 ± 0.2
AGCGAGCAAUAUUACGAUCG,self-splicing fitness (ln),30 °C,-1.79 ± 0.25
same,self-splicing fitness (ln),37 °C,-1.63 ± 0.3
CCUUAGCAAUAUUACGUGAA,self-splicing fitness (ln),30 °C,-4.2 ± 0.24
same,self-splicing fitness (ln),37 °C,-3.37 ± 0.28
UUCAAGCAAUAUUACGAGCC,self-splicing fitness (ln),30 °C,-2.64 ± 0.32
CCUAAGCAAUAUUACGGGGU,self-splicing fitness (ln),30 °C,-3.28 ± 0.17
same,self-splicing fitness (ln),37 °C,-2.82 ± 0.17
GCUGAGCAAUAUUACGCCGA,self-splicing fitness (ln),37 °C,-1.38 ± 0.32
CGAAAGCAAUAUUACGAUGU,self-splicing fitness (ln),30 °C,-1.52 ± 0.074
same,self-splicing fitness (ln),37 °C,-1.15 ± 0.13
UUUCAGCAAUAUUACGUUAG,self-splicing fitness (ln),30 °C,-1.31 ± 0.11
same,self-splicing fitness (ln),37 °C,-0.474 ± 0.12
AAGCAGCAAUAUUACGAUCA,self-splicing fitness (ln),30 °C,-1.28 ± 0.091
same,self-splicing fitness (ln),37 °C,-0.405 ± 0.11
GAUCAGCAAUAUUACGAUGC,self-splicing fitness (ln),30 °C,-0.684 ± 0.12
same,self-splicing fitness (ln),37 °C,0.0112 ± 0.12
UUUCAGCAAUAUUACGAUCG,self-splicing fitness (ln),30 °C,-0.997 ± 0.099
same,self-splicing fitness (ln),37 °C,-0.152 ± 0.14
CCUUAGCAAUAUUACGCGGU,self-splicing fitness (ln),30 °C,-3.78 ± 0.36
AAAAAGCAAUAUUACGUAUG,self-splicing fitness (ln),30 °C,-2.02 ± 0.11
same,self-splicing fitness (ln),37 °C,-1.63 ± 0.13
AAAUAGCAAUAUUACGUGGU,self-splicing fitness (ln),30 °C,-3.87 ± 0.16
same,self-splicing fitness (ln),37 °C,-2.84 ± 0.15
ACUUAGCAAUAUUACGUGAU,self-splicing fitness (ln),30 °C,-2.53 ± 0.1
same,self-splicing fitness (ln),37 °C,-1.37 ± 0.1
GUGGAGCAAUAUUACGUUAU,self-splicing fitness (ln),30 °C,-3.23 ± 0.26
same,self-splicing fitness (ln),37 °C,-0.612 ± 0.14
CACGAGCAAUAUUACGUUGA,self-splicing fitness (ln),30 °C,-3.06 ± 0.17
same,self-splicing fitness (ln),37 °C,-2.47 ± 0.18
CGGCAGCAAUAUUACGUAGG,self-splicing fitness (ln),30 °C,-0.38 ± 0.075
same,self-splicing fitness (ln),37 °C,0.0683 ± 0.097
CGAGAGCAAUAUUACGCGAA,self-splicing fitness (ln),30 °C,-2.39 ± 0.27
same,self-splicing fitness (ln),37 °C,-1.89 ± 0.37
ACACAGCAAUAUUACGUGCU,self-splicing fitness (ln),30 °C,-1.34 ± 0.055
same,self-splicing fitness (ln),37 °C,-0.611 ± 0.065
GUCGAGCAAUAUUACGGAUU,self-splicing fitness (ln),30 °C,-2.03 ± 0.26
same,self-splicing fitness (ln),37 °C,-0.691 ± 0.21
CCUCAGCAAUAUUACGUGCA,self-splicing fitness (ln),30 °C,-4.09 ± 0.37
same,self-splicing fitness (ln),37 °C,-2.32 ± 0.35
GCUUAGCAAUAUUACGCACA,self-splicing fitness (ln),30 °C,-1.02 ± 0.14
same,self-splicing fitness (ln),37 °C,0.3 ± 0.15
CGCGAGCAAUAUUACGGUGU,self-splicing fitness (ln),30 °C,-3.91 ± 0.17
same,self-splicing fitness (ln),37 °C,-2.34 ± 0.15
AUGAAGCAAUAUUACGCUGG,self-splicing fitness (ln),30 °C,-1.42 ± 0.1
same,self-splicing fitness (ln),37 °C,-0.718 ± 0.12
CCACAGCAAUAUUACGCAUG,self-splicing fitness (ln),30 °C,-1.64 ± 0.073
same,self-splicing fitness (ln),37 °C,-0.648 ± 0.067
UCGCAGCAAUAUUACGGAUA,self-splicing fitness (ln),30 °C,-2.58 ± 0.25
same,self-splicing fitness (ln),37 °C,-2.44 ± 0.26
GCACAGCAAUAUUACGCAUA,self-splicing fitness (ln),30 °C,-0.997 ± 0.088
same,self-splicing fitness (ln),37 °C,-0.269 ± 0.085
GCUAAGCAAUAUUACGAUUC,self-splicing fitness (ln),30 °C,-0.0116 ± 0.081
same,self-splicing fitness (ln),37 °C,-0.128 ± 0.092
CUUGAGCAAUAUUACGUUAG,self-splicing fitness (ln),30 °C,-3.13 ± 0.2
same,self-splicing fitness (ln),37 °C,-1.11 ± 0.15
